These results are taken from paper PMC11182194.

The target in one test is bevacizumab (human). The test can be described thus: ELISA; pH 5.5; biologic titrated and captured on coated human VEGF165; 1 ug/mL hFcRn-GST added for 1 h at room temperature (100 mM phosphate, 0.15 M NaCl, 4% skimmed milk, 0.05% Tween 20); detected with HRP-conjugated anti-GST. (ELISA stands for enzyme-linked immunosorbent assay.)
Another test deals with aflibercept (human). The test is described as above.

recombinant hFcRn-GST, sequence (P55899 whole entry, looked up, tested part not stated): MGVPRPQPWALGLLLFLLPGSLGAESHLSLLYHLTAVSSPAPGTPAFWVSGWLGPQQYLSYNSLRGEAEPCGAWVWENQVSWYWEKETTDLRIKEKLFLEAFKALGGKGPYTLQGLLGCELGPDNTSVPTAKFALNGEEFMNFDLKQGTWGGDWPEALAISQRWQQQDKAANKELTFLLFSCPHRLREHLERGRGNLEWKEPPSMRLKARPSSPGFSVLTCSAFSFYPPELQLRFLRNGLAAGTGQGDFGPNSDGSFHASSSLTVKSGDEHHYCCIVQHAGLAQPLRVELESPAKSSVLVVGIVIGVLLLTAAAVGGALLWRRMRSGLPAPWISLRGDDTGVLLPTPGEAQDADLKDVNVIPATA
bevacizumab (human), sequence (heavy, as listed by the source, chain 1 of 2): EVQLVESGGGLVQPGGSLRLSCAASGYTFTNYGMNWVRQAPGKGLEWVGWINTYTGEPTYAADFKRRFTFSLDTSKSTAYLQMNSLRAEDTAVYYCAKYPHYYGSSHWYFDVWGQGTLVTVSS
bevacizumab (human), sequence (light, as listed by the source, chain 2 of 2): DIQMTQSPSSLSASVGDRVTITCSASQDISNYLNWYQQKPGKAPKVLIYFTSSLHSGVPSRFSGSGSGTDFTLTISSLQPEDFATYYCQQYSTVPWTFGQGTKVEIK

With “recombinant hFcRn-GST (from UniProt P55899 24-365) (receptor)”, the reduction of absorbance at D30 (capped syringe) against D0-n turned out to be 18.7% in the test with bevacizumab (human) and 37.5% in the test with aflibercept (human).
